The target in experiment [1] is His6-MobC1-129 (plasmid RA3 (IncU), isolated from Aeromonas hydrophila). As to the kind of experiment: SEC-MALS; gel filtration on Superdex 200 10/300 GL with UV, MALS and refractometer in line; 10 mM Tris pH 8.0, 150 mM NaCl; 0.5 ml of His6-MobC at 0.24 mg ml^-1 or His6-MobC1-129 at 0.04 mg ml^-1; no higher oligomers of MobC detected.
Experiment [2] has the same target. As to the kind of experiment: cross-linking; His-tagged MobC derivatives (0.1 mg ml^-1) with 0.001%, 0.005% and 0.01% glutaraldehyde; 20% SDS-PAGE, Western blot with anti-His tag antibodies.
In experiment [3] the target is His6-MobC (WT MobC of plasmid RA3) (plasmid RA3 (IncU), isolated from Aeromonas hydrophila). As to the kind of experiment: SEC-MALS; gel filtration on Superdex 200 10/300 GL with UV, MALS and refractometer in line; 10 mM Tris pH 8.0, 150 mM NaCl; 0.5 ml of His6-MobC at 0.24 mg ml^-1 or His6-MobC1-129 at 0.04 mg ml^-1; no higher oligomers of MobC detected.

For His6-MobC1-129 (domain or fragment), the stoichiometry N in experiment [1] and in experiment [2] was 2 each time. The substance “His6-MobC (WT MobC of plasmid RA3) (natural protein)” yielded a stoichiometry N in experiment [3] of 2.
